Results: the DeepSol protein solubility set

Test: soluble on expression in E. coli; label from the status in PepcDB or PDB records

Row | Sequence | soluble on expression in E. coli
1 | MSLSLLSKLDVSPLQFQDPSKDGSKIINLNLDGSGDPLRLSELGESDYSNSIKVRDNEYVTYHLSNDYSVLTIYSMNDALQNKTINIKLPVQSTNKQHTSIVFVKDEAFNVEFILRNSIYLKISIPIDFIINNSSELNEDWFYVLQPYDFSVRKPHMLHRVSDNFSVVFLEDGGLVGLTSHGETDLEPILFNDNSYLQSITRLFSKSKHSKNSKVVSCSNYQSNFLIVLTEDCILKIWDLKKLILINEYNLFDVNNSDFIAGGLFDSCGNYLHLFNNLLTIYLPFTNGLFQVGTLDVDSSDKLTFQSKIVIPSNLPASSLWSLTDMRMINPLDLNLPETFLNIIVLWKSGTMSKLQILNILNESVDSYEWIDASNKDLEETRIESDIESSDFSKTLFKLTSRYPKAIVDRAIKVLEENGISIPLQEALDEEYLANLETLLRDIKGGCDEASSLTLYNDEIIVINCLQKYNYSIYKINCSLEKTYFDINDDSEGHHHHHH | soluble
2 | MGSDKIHHHHHHMEYTSLIFPGDKIDIFASGLSDNSTSYKSSFSDKLTDSMWEITMPVDSGRVVLFQLGTQFDFIIYTQNKTILKSSAIVRQRYRKENMYFLAIELINNLEKIQRRQFFRLPCTIDMDFYEVRYDDKAESELEFCKKMYKNHAINSKNMNTVKSVILDISGGGIRFSLSTPLEEGTYFMAQFSLALEECTQQFNIVCKVINCTQSLDYADRYFARSKFIFDRMTEREKIVRFVFEEERRIRRREME | not soluble
3 | MGSDKIHHHHHHMIFTMKATKILICILCCTWICSCSLLEVDPVSTITSQSFWKTPGDAKAYLTGIYNKVRSLNNTSYYGEDRGDAFKAGEIGPTSVAWAHTLLESNAPSYRSAYNIIHHANLLFNKIESLKFTNETEKNRIKAECHFLRAYTYFLIVRIWGDAPIITDPVLSDNVELKPRSPKEDVMKLILEDIEQSVLLFPEDGYINKNLASKPAAYALKADVLMWKAKVLNGGNADLEEAIKAIDQVGGSGVSLLPDYAKVFANDNKKNNEIIFSFYFERYETGNLSIATNTTSRTDNLSMAVNLADAATSPNQSRHVYAPSDKARELYLKYPGDRRYKVAMIDLVDKDGNLILTQTNKFRGKAYSDDRYFDDDLIAYRWGDLLLLRAEANAALNKISESLVDLNEVRDRAGLEPYDGPKDKIAVEKEICDERLRELFIEQKRWFDLVRFHCGGTIDIYKEVPNLNDKPGYPLYFPINYNDMVLNDKLVQTDGYESNVER | not soluble
4 | MGSDKIHHHHHHMSAEEQINQFKKFCAAIISFDEEEWQAMEKCLRIKFLSKDDYFLRQGKTCSRMGFVCKGYTRLFFLIDGEEHTKDFCFENTFTGSLASFLVRKPAAFNVVAMEDTYMLTIEYNALMELYKNYMCWNTFGRIVVEQFAIRKENREVTFLLNTPEKRYEEVSDQYPHLLQRAPLKMIASYLNMTPETLSRIRSKKTK | not soluble
5 | MVGNTFGRIFRVTTCGESYAGAFRKNLQIPKELFGGLIAIVDGVPPGIKLTADFVQEELDKRRPGKTPLDTPRKERDKVYIFSGVMEDDITTGAPVGMIIPNDVIEDEHINKHKSYKEVVRPGQAGYTFFKKYGQFADNIGAGRASGRETAARVAAGAVAKAVLDTMGIDVIAFVTEIHGIKAQENITYEMAKANYRKNEINCPDLEKAKEMIEELKRIKEEGDSVGGVVEIIARGVPAGLGEPVFDKLQATLAHALMSIGAIKGIEFGEGFGHTKLKGSESNDVPYYDEASGRVRFKTNRAGGILGGISNGEDIRIRVAVKPTPTISIPQKTVNMYTLENVEVEFNTRNDPSICPRIYPVCEAMVRIALLDALYIAKGYRAISSNIDPRWDRL | not soluble
6 | MSLKQRPNVLLIVLDTARARTVLPGLESGLMPTLSRIASDGTTFTDATATAPWTLPSHAGMFTGKYTSSHGVHAGNHIFDPDSEPLASRISNAGYRTAGISGNVWISPEFGFDAGFDEFSMKWDLFWDAPELSSVISNRNTTATGDTILDVFRGQGPVDLLKGTLTTGYAKFLAERHDDGAHHTTSRTVEWLEQNGTEDDPFFYFLNYVEPHLPYEPPAPFLDEYLPDGADPSRVSDLNQDPWQYVAGDQELTDADVEIFKGLYEAELAYLDTQLERLYDTLAEQCILDETAIILVGDHGENIGEHGLMDHQYCLYETLIHVPLVIRYPELFDEEEVSGPVELRDLYPTVTDLAGAEQPADTDVSTHSLVPRDGTVPVRDRAIAEYLVPQPSMDSLREAVESFDEAATRFDRPLRAIKTTDWKFIEAPDDTELYDRDDDPIEWIDVASIHPDICELLGTDLRDELGRLARGTSDSNTISANKKERLEDLGYLQ | not soluble
7 | MQEVAMSSQEASKMLRTYNIAWWGNNYYDVNELGHISVCPDPDVPEARVDLAQLVKTREAQGQRLPALFCFPQILQHRLRSINAAFKRARESYGYNGDYFLVYPIKVNQHRRVIESLIHSGEPLGLEAGSKAELMAVLAHAGMTRSVIVCNGYKDREYIRLALIGEKMGHKVYLVIEKMSEIAIVLDEAERLNVVPRLGVRARLASQGSGKWQSSGGEKSKFGLAATQVLQLVETLREAGRLDSLQLLHFHLGSQMANIRDIATGVRESARFYVELHKLGVNIQCFDVGGGLGVDYEGTRSQSDCSVNYGLNEYANNIIWAIGDACEENGLPHPTVITESGRAVTAHHTVLVSNIIGVERNEYTVPTAPAEDAPRALQSMWETWQEMHEPGTRRSLREWLHDSQMDLHDIHIGYSSGIFSLQERAWAEQLYLSMCHEVQKQLDPQNRAHRPIIDELQERMADKMYVNFSLFQSMPDAWGIDQLFPVLPLEGLDQVPERRAVLLDITCDSDGAIDHYIDGDGIATTMPMPEYDPENPPMLGFFMVGAYQEILGNMHNLFGDTEAVDVFVFPDGSVEVELSDEGDTVADMLQYVQLDPKTLLTQFRDQVKKTDLDAELQQQFLEEFEAGLYGYTYLEDELEHHHHHH | not soluble
8 | DPTQSVRAYYIQNGDSTKTVIIGQGWTEHVDWIGYVSKIWYDMGYNVLMPSQRGQFLSDGDNLTFGYQDKYDWLNWVKMVDERNGADSQVVFYGQSLGADTVLEAASVPGLSKSVKAVVSDAGYATLPELGSSLYNKAITAVSNALQSIGLPAITSLPFLSYDKIVAAMNARLIKEQGFSVDDLSATDAASKITIPLLLIHTQDDAFIPYTQSLELAAANHSANQEVWILPGTVGGHAAANNAILQYRQHLLAFLTPLLSVADAED | not soluble
9 | SPAPNQPAAKKTLDSTPAQDKPPQPNSQGKKLASVALLLVLALGAGFAYVHQQQKSEFNNQLQAVRAELKQTRDALNAQLEQTVSKATSQATEITHRAETVLEQQQKSIESLQLAVADIKGRRPNDWLLAEADYLVKLAGRKLFLEHDVETATQLMESADQRIAALNDPSLTALRKAMANDITTLKNIPLIDRDGLVLRLISLQQQIDSLPLANAILPADQPQTSQAVSENIDDWQTNLKNSLKAFADNFITFRSRDGNVIPLLSPTQHFYLRENLQAKLETAIKGVYTEQQTLYRIALDTAAQWSTSFFNPDDKAVQSFNAALAQLAEQQVQVEYPVKLQAQQQLADVINERLRRSVSPLTTGA | not soluble
10 | MGSDKIHHHHHHMTAELLRLLENVLRVGVVTEIDVDEWRVRVSAGGLHTDWLRWDALRAGSFSVWIPPSVGEQVLLGCIGGNPETAVIIGSIYSAANPAPGSSSSELVIKAPDGATVRYDAAAGALEASGMKTARIVASVGVTLETPVVECTEHLVAKTFSFTEGGTMKGDVNHTGGAFKSNGVQADEHSHGNVLNGPGWSDGTR | not soluble
11 | MGSDKIHHHHHHMGLAFEHVTLGQRVLFGTGTAAPSLASEVARLGARRVMVITSNRARETAYRIAADVEVALWHHDVAMHVPIETARKARAAAGEHGIDLLVCVGGGSTTGLAKAIAMTLRLPIIAVPTTYAGSEATNVWGLTEASRKTTGVDDAVLPVTVIYDAALTLALPVAMSVASGLNGIAHCIDSMWAPGADPINAALGAEGIRALSHGLPLIAEDPAGTEGREQALYGAYLSAVAFASAGSGLHHKICHVLGGAFNLPHAQVHATVLPYVLAFNAPYASDSEARIAAAFGTADALTGLQELRNRLDAPKALSDYGLTADGAAEAAAVVQPTVPASNPRPVTTENLTRLLQAALSGEDPRCLLEH | not soluble
12 | MTLRAARPEFLDLFPAGAEARRLADGFTWTEGPVYVPARSAVIFSDVRQNRTWAWSDDGQLSPEMHPSHHQNGHCLNKQGHLIACSHGLRRLERQREPGGEWESIADSFEGKKLNSPNDVCLAPDGSLWFSDPTYGIDKPEEGYGGEMELPGRWVFRLAPDGTLSAPIRDRVKPNGLAFLPSGNLLVSDTGDNATHRYCLNARGETEYQGVHFTVEPGKTDGLRVDAGGLIWASAGDGVHVLTPDGDELGRVLTPQTTSNLCFGGPEGRTLYMTVSTEFWSIETNVRGLEHHHHHH | soluble
